The conditions of series [1]: cited from earlier work.
The nature of series [2]: Aging of glucagon in glycine buffer at 37° C, analysed by LCMS. It is filed as physicochemical.
In series [3] the test system is animals. The following applies: cited from earlier work.

Turning to glucagon, the “aggregation at alkaline pH vs acid pH” value in series [1] is listed as “much less prone to aggregation than glucagon prepared at acid pH”. Moreover, in series [2] (1 mg/ml in glycine buffer pH 10, 7 days at 37° C, reverse-phase LCMS), the “width of main LCMS peak, glucagon aged at pH 10” value is recorded as 3 min. Further, in series [2] (aged 7 days at 37° C, least-squares fitting of isotopic distribution of the m/z spectrum), the “deamidation events after aging, pH 10 vs pH 9” value is reported as “more deamidation events than pH 9”. Further, the “width of main LCMS peak, fresh glucagon” value in series [2] (unaged glucagon, reverse-phase LCMS) is listed as 1 min. For the same substance, the “bioactivity of fibrillated glucagon given to animals” value in series [3] is listed as “retains much of its bioactivity”.

The record behind these values is publication PMC3947653 (Peptides, 2013).
